± gives the standard deviation of the averaged measurements.
Columns and labels:
Saccharomyces cerevisiae [1] = test: protein stability index of tFT-peptide fusion (C-terminal peptide) (PSI (0-1 scale)); higher = more stable (slower turnover)
Experimental: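 MPS profiling in S. cerevisiae of the tFT-X12 degron library: putative degron peptides plus stable controls, 12 aa, fused to the C-terminus of a sfGFP-mCherry timer. Cells are FACS-sorted into 8 mCherry/sfGFP bins and deep-sequenced. PSI runs from 0 (unstable) to 1 (stable). Backgrounds are wild type, das1Δ and doa10Δ at 30 °C, and wild type, das1Δ, cdc34-1 and cdc53-1 at 37 °C; 2-3 technical replicates each.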

Saccharomyces cerevisiae [2] = test: as above; details: genetic background: wild type; temperature: 30 C
[3] = genetic background: cdc34-1, temperature: 37 C
[4] = genetic background: cdc53-1, temperature: 37 C
[5] = genetic background: das1 deletion, temperature: 30 C
[6] = genetic background: das1 deletion, temperature: 37 C
[7] = genetic background: doa10 deletion, temperature: 30 C
[8] = genetic background: wild type, temperature: 30 C
[9] = genetic background: wild type, temperature: 37 C
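Also: PSI is a weighted mean of sequencing reads over stability bins, variants kept only with over 10 reads, mCherry proximal and sfGFP distal, peptide attached via GGGS linker.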

Sequence	protein stability index (Saccharomyces cerevisiae [1]; [3])	protein stability index (Saccharomyces cerevisiae [1]; [4])	protein stability index (Saccharomyces cerevisiae [1]; [5])	protein stability index (Saccharomyces cerevisiae [1]; [6])	protein stability index (Saccharomyces cerevisiae [1]; [7])	protein stability index (Saccharomyces cerevisiae [1]; [8])	protein stability index (Saccharomyces cerevisiae [1]; [9])	protein stability index (Saccharomyces cerevisiae [2])
FLYSVLLICKFI	0.214 ± 0.029	0.258 ± 0.016	0.224 ± 0.037	0.389 ± 0.013	0.118 ± 0.016	0.0757 ± 0.035	0.0829 ± 0.034	0.135 ± 0.12
FMANRYICQKTL	0.522 ± 0.074	0.731 ± 0.018	0.635 ± 0.026	0.727 ± 0.01	0.0893 ± 0.023	0.0967 ± 0.022	0.168 ± 0.017	0.185 ± 0.012
FPCRNFMVFFCF	0.425 ± 0.029	0.442 ± 0.008	0.43 ± 0.035	0.505 ± 0.0097	0.211 ± 0.0036	0.204 ± 0.0085	0.285 ± 0.03	0.29 ± 0.03
FPFPLSSFLLLY	0.385 ± 0.015	0.401 ± 0.018	0.41 ± 0.032	0.516 ± 0.011	0.415 ± 0.028	0.331 ± 0.019	0.444 ± 0.0087	0.4195 ± 0.0039
FRSMFLFLNLLF	0.458 ± 0.05	0.3523 ± 0.00055	0.391 ± 0.048	0.73 ± 0.02	0.559 ± 0.015	0.371 ± 0.019	0.574 ± 0.025	0.412 ± 0.014
FSFEGVLVPLLV	0.31519 ± 3.7e-05	0.301 ± 0.043	0.288 ± 0.036	0.4113 ± 0.00044	0.249 ± 0.0058	0.287 ± 0.033	0.384 ± 0.0086	0.396 ± 0.015
FSFFLYFFLLLF	0.327 ± 0.025	0.304 ± 0.0072	0.31 ± 0.026	0.402 ± 0.016	0.392 ± 0.032	0.271 ± 0.034	0.389 ± 0.016	0.315 ± 0.0031
FSGRYFLLFRFL	0.238 ± 0.035	0.28 ± 0.0032	0.341 ± 0.0075	0.389 ± 0.0091	0.083 ± 0.015	0.0605 ± 0.014	0.144 ± 0.038	0.104 ± 0.019
FSLLTWPFVFLV	0.126 ± 0.021	0.0782 ± 0.0059	0.252 ± 0.041	0.346 ± 0.037	0.0816 ± 0.015	0.0575 ± 0.0078	0.0613 ± 0.011	0.08711 ± 0.00051
FVCWGSLILCGG	0.151 ± 0.0074	0.1833 ± 0.0012	0.19 ± 0.028	0.29 ± 0.0062	0.1516 ± 0.00087	0.181 ± 0.027	0.258 ± 0.0085	0.264 ± 0.012
FVFAMSECIVLS	0.269 ± 0.014	0.318 ± 0.0043	0.205 ± 0.025	0.393 ± 0.0046	0.269 ± 0.0044	0.214 ± 0.022	0.364 ± 0.00049	0.308 ± 0.0053
FVLWLIYVDLFF	0.214 ± 0.039	0.234 ± 0.013	0.196 ± 0.048	0.342 ± 0.015	0.181 ± 0.019	0.22 ± 0.033	0.339 ± 0.041	0.287 ± 0.094
FVSHRRFSLFLY	0.584 ± 0.038	0.691 ± 0.011	0.602 ± 0.019	0.726 ± 0.046	0.124 ± 0.0019	0.143 ± 0.021	0.203 ± 0.019	0.209 ± 0.02
FVVLVFMLGSVC	0.274 ± 0.035	0.379 ± 0.029	0.254 ± 0.044	0.454 ± 0.044	0.234 ± 0.0062	0.245 ± 0.049	0.426 ± 0.035	0.365 ± 0.037
FVVVGLGLLCLA	0.492 ± 0.0066	0.565 ± 0.011	0.362 ± 0.027	0.569 ± 0.0068	0.257 ± 0.015	0.305 ± 0.02	0.491 ± 0.014	0.473 ± 0.013
FVWVVRMLVFVP	0.178 ± 0.0058	0.2493 ± 0.00099	0.187 ± 0.025	0.383 ± 0.023	0.165 ± 0.008	0.16 ± 0.025	0.3 ± 0.0077	0.276 ± 0.017
FWHGRCPGLYLV	0.583 ± 0.11	0.639 ± 0.018	0.607 ± 0.012	0.7263 ± 0.0042	0.163 ± 0.009	0.169 ± 0.03	0.304 ± 0.005	0.27 ± 0.0087
FYIRFYVYSWLF	0.376 ± 0.0093	0.441 ± 0.011	0.304 ± 0.051	0.492 ± 0.0077	0.278 ± 0.0083	0.303 ± 0.01	0.46 ± 0.0047	0.3604 ± 0.0023
FYLSSCFLFLRF	0.174 ± 0.052	0.136 ± 0.046	0.311 ± 0.012	0.33618 ± 0.0003	0.62 ± 0.04	0.288 ± 0.017	0.305 ± 0.023	0.355 ± 0.0087
GAVRRWGGVSFV	0.626 ± 0.041	0.707 ± 0.026	0.643 ± 0.011	0.707 ± 0.032	0.662 ± 0.028	0.664 ± 0.0068	0.679 ± 0.015	0.259 ± 0.068

Sequence	protein stability index (Saccharomyces cerevisiae [1]; [3])	protein stability index (Saccharomyces cerevisiae [1]; [4])	protein stability index (Saccharomyces cerevisiae [1]; [5])	protein stability index (Saccharomyces cerevisiae [1]; [6])	protein stability index (Saccharomyces cerevisiae [1]; [7])	protein stability index (Saccharomyces cerevisiae [1]; [8])	protein stability index (Saccharomyces cerevisiae [1]; [9])	protein stability index (Saccharomyces cerevisiae [2])
GDLEFCCLIIVL	0.4401 ± 0.0033	0.556 ± 0.072	0.302 ± 0.018	0.5755 ± 0.005	0.27 ± 0.042	0.306 ± 0.032	0.5052 ± 0.0033	0.321 ± 0.0098
GELPGELYKFWL	0.769 ± 0.052	0.7774 ± 0.005	0.664 ± 0.022	0.7558 ± 0.0025	0.671 ± 0.024	0.671 ± 0.016	0.743 ± 0.021	0.754 ± 0.03
GFFLLSFLFFVR	0.148 ± 0.0056	0.181 ± 0.037	0.212 ± 0.023	0.393 ± 0.034	0.234 ± 0.02	0.195 ± 0.021	0.311 ± 0.007	0.224 ± 0.032
GFGDKVPWRWVI	0.606 ± 0.037	0.759 ± 0.022	0.657 ± 0.026	0.7816 ± 0.0045	0.124 ± 0.01	0.135 ± 0.0096	0.244 ± 0.0061	0.227 ± 0.045
GFSVFSHSVWVR	0.133 ± 0.044	0.0797 ± 0.0059	0.19 ± 0.032	0.271 ± 0.012	0.437 ± 0.016	0.194 ± 0.011	0.238 ± 0.013	0.313 ± 0.014
GGICVVAYWRLA	0.4654 ± 0.0011	0.518 ± 0.006	0.388 ± 0.034	0.564 ± 0.01	0.0948 ± 0.013	0.105 ± 0.021	0.173 ± 0.0065	0.198 ± 0.025
GGMGLWCCVSVG	0.665 ± 0.01	0.6779 ± 0.0056	0.528 ± 0.027	0.68341 ± 0.00034	0.513 ± 0.015	0.54 ± 0.015	0.651 ± 0.0083	0.527 ± 0.099
GGRSLYAILCAV	0.3216 ± 0.0018	0.393 ± 0.018	0.277 ± 0.028	0.4669 ± 0.0034	0.166 ± 0.021	0.197 ± 0.027	0.261 ± 0.011	0.321 ± 0.03
GGSLWLVHLKTI	0.604 ± 0.059	0.761 ± 0.038	0.633 ± 0.035	0.718 ± 0.025	0.118 ± 0.026	0.158 ± 0.011	0.275 ± 0.082	0.181 ± 0.044
GGTFWDGLVLVH	0.34 ± 0.023	0.418 ± 0.03	0.32 ± 0.028	0.484 ± 0.0082	0.274 ± 0.013	0.334 ± 0.035	0.45476 ± 9.2e-06	0.497 ± 0.097
GGYGAGLRSPLF	0.709 ± 0.04	0.755 ± 0.013	0.6761 ± 0.0025	0.741 ± 0.015	0.664 ± 0.014	0.661 ± 0.0099	0.729 ± 0.022	0.736 ± 0.044
GINHLSLKLRLF	0.647 ± 0.049	0.723 ± 0.017	0.631 ± 0.014	0.7423 ± 0.0037	0.109 ± 0.037	0.133 ± 0.0058	0.288 ± 0.01	0.262 ± 0.017
GIVSGEGAVGVG	0.46 ± 0.041	0.511 ± 0.025	0.468 ± 0.0097	0.5212 ± 0.0039	0.488 ± 0.022	0.466 ± 0.011	0.4989 ± 0.0019	0.509 ± 0.025
GIVYFDQWISVS	0.546 ± 0.031	0.538 ± 0.082	0.393 ± 0.022	0.571 ± 0.016	0.321 ± 0.0069	0.347 ± 0.02	0.544 ± 0.0084	0.461 ± 0.052
GLACNPQLLRWT	0.692 ± 0.014	0.7433 ± 0.0064	0.653 ± 0.018	0.7437 ± 0.0035	0.665 ± 0.035	0.654 ± 0.027	0.7175 ± 0.0069	0.756 ± 0.051
GLFGFASPPPPS	0.678 ± 0.042	0.7583 ± 0.0047	0.677 ± 0.016	0.749 ± 0.0081	0.6784 ± 0.0035	0.71 ± 0.021	0.722 ± 0.011	0.25 ± 0.032
GLLAEPALLLLS	0.661 ± 0.06	0.699 ± 0.027	0.618 ± 0.0073	0.724 ± 0.023	0.604 ± 0.037	0.62 ± 0.025	0.6881 ± 0.0066	0.499 ± 0.1
GLLLLGIRLKWG	0.139 ± 0.029	0.274 ± 0.037	0.208 ± 0.015	0.363 ± 0.026	0.157 ± 0.014	0.206 ± 0.013	0.328 ± 0.02	0.269 ± 0.011
GLLLRLRNLFCM	0.759 ± 0.087	0.8043 ± 0.0034	0.748 ± 0.019	0.851 ± 0.028	0.387 ± 0.026	0.391 ± 0.02	0.547 ± 0.05	0.522 ± 0.042

— the supplement of paper PMC10724198
